Molecular target: T1, Rox1 (Saccharomyces cerevisiae, UniProt P25042 1-368)
T1 sequence: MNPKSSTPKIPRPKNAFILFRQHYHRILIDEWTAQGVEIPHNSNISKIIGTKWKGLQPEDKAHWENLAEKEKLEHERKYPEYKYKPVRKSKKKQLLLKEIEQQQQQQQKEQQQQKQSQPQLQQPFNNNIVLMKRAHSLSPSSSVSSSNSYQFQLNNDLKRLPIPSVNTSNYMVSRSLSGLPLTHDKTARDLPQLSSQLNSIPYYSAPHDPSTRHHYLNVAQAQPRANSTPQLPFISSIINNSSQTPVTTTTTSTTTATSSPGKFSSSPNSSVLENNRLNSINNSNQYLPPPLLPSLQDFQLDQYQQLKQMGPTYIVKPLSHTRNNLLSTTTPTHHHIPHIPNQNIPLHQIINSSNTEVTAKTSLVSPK
Assay: EMSA

B1: HMG6bp (dsDNA)
DNA 1: TGATTGTCAATTTAGTTAATCATTGTTATTAATAAAGGAAAGATATAAAA
DNA 2: TTTTATATCTTTCCTTTATTAATAACAATGATTAACTAAATTGACAATCA
- binding result: binds

From publication PMC6941230
